What was measured:
[1] = molecular target: T1, E2 sRGN (synthetic (Staphylococcus Cas9 chimera)); experiment: FP; cleavage; specificity profile comparable to SluCas9
T1 chain: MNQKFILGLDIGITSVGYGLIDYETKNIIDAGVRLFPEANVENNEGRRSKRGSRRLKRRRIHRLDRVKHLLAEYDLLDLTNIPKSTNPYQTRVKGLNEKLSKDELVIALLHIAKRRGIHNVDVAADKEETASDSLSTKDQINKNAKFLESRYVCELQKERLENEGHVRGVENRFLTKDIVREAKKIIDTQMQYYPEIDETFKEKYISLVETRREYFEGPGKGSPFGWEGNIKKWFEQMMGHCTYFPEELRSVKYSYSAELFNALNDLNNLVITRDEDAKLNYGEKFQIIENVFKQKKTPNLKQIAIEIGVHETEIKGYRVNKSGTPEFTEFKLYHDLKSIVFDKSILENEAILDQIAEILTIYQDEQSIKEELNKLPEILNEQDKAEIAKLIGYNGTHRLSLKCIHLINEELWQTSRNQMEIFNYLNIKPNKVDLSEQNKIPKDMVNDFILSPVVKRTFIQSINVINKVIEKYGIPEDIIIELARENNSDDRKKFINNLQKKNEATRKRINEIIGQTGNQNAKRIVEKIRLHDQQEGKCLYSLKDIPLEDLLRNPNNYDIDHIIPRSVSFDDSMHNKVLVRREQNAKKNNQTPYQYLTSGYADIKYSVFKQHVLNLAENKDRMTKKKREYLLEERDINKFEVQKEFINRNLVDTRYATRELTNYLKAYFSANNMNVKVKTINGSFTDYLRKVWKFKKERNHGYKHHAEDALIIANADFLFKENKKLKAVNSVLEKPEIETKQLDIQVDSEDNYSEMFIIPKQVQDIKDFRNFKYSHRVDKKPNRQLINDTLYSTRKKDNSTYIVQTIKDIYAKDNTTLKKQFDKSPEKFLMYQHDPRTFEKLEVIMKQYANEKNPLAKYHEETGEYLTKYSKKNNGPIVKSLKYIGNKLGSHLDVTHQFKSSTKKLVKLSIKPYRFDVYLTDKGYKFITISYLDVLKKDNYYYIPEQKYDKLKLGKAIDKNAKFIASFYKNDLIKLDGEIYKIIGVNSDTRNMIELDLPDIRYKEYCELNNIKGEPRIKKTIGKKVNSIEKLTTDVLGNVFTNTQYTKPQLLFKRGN
Description: (§1) Oligonucleotide duplexes were prepared in 10 mM Tris (pH 7.8) 50 mM NaCl as 10 μM solutions (from 100 μM stocks) and annealed at 95° C. for 5 minutes then slowly cooled down in thermo cycler (6° C. per minute). The stocks were subsequently diluted in 10 mM Tris (pH 7.8), 50 mM NaCl, and 0.05% Pluronic. 20 μl of each oligonucleotide (20 nM) was immobilized on streptavidin coated plates, washed twice after 10 minutes and then incubated with a 20 μL sample for a kinetics of 60 minutes (excitation wavelength: 635 nm; emission wavelength: 670 nm). Prior to the cleavage the reaction RNP was formed. RNP was assembled by mixing 12.03 μl of the respective sRGN protein (1.21 μg/μl) in 3200 μl 1×PBS+5 mM MgCl₂ with and without sgRNA (SEQ ID NO: 128; 60 nM final concentration), RNPs were incubated 5 min at 37° C. prior to the reaction. 20 μl RNP was added to each well and the polarization was measured for 60 minutes at 37° C.
(§2) The cleavage kinetics were analyzed by calculating the initial slope of the oligonucleotide cleavage reaction. The slopes were calculated for each of the 61 substrates and normalized to the value of the on-target substrate (defined as 1). The normalized cleavage values for all 60 off-target substrates where then grouped according to their position. […]

[2] = molecular target: T2, Gib11Spa-3 sRGN (synthetic (Staphylococcus Cas9 chimera)); experiment: FP; cleavage; 5 mM MgCl2, 37 C; PAM GGGG on substrate
T2 chain: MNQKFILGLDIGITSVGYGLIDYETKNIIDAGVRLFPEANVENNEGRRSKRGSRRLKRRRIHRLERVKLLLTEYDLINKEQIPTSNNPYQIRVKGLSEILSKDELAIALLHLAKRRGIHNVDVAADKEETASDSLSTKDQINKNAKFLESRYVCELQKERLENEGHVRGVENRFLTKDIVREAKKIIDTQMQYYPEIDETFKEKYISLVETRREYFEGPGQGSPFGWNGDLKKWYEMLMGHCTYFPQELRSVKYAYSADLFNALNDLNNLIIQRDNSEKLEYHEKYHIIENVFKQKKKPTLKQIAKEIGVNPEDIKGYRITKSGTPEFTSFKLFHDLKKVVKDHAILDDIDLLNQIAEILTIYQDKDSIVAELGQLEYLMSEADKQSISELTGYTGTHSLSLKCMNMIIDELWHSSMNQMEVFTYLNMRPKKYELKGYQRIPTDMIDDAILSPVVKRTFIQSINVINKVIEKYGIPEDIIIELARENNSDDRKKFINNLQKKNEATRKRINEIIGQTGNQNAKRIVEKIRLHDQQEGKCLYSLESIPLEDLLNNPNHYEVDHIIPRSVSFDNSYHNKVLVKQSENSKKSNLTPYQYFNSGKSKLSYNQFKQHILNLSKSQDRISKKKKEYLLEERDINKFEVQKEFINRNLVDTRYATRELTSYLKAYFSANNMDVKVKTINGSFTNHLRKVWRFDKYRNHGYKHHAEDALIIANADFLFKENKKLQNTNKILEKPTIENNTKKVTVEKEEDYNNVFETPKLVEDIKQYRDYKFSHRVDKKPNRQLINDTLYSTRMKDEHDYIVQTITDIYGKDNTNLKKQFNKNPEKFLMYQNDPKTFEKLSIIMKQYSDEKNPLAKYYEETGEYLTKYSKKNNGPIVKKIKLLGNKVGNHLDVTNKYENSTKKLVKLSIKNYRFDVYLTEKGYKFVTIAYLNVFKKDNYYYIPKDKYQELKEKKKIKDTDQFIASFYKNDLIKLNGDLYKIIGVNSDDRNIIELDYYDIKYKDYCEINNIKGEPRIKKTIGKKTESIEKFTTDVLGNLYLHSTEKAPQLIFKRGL
Description: as §1, §2

[3] = molecular target: T3, Gib11Spa-1 sRGN (synthetic (Staphylococcus Cas9 chimera)); experiment: as above
T3 chain: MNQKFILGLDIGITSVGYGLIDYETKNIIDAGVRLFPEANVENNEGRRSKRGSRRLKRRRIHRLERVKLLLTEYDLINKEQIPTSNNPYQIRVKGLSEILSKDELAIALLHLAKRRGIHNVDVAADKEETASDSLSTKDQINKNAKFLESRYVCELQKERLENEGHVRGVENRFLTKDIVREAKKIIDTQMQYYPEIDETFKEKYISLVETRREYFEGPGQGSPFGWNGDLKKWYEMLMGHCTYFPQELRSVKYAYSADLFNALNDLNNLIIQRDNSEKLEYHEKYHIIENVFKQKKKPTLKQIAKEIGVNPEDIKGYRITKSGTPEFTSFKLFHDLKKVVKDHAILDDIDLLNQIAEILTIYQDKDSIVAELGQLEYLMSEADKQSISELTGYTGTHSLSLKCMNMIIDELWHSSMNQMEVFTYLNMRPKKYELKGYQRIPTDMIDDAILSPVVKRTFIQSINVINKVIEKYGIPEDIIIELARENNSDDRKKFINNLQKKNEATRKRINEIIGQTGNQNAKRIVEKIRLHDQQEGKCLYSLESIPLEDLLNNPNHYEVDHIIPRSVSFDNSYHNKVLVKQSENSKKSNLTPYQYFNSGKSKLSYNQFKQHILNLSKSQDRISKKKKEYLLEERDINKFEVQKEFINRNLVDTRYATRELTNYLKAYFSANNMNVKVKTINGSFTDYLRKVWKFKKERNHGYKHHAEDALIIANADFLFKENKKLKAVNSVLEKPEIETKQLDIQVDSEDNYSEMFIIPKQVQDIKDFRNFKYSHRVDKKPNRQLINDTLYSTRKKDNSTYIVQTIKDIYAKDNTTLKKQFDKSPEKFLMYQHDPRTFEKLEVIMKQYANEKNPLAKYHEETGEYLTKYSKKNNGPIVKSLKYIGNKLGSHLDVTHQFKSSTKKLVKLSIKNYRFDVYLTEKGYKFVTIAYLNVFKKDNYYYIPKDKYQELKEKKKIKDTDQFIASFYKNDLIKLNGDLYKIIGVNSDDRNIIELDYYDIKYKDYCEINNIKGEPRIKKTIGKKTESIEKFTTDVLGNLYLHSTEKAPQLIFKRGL
Description: as §1, §2

[4] = molecular target: T4, Gib11 sRGN (synthetic (Staphylococcus Cas9 chimera)); experiment: FP; cleavage; 5 mM MgCl2, 37 C; PAM GGGG on substrate; mismatch values only in figure
T4 chain: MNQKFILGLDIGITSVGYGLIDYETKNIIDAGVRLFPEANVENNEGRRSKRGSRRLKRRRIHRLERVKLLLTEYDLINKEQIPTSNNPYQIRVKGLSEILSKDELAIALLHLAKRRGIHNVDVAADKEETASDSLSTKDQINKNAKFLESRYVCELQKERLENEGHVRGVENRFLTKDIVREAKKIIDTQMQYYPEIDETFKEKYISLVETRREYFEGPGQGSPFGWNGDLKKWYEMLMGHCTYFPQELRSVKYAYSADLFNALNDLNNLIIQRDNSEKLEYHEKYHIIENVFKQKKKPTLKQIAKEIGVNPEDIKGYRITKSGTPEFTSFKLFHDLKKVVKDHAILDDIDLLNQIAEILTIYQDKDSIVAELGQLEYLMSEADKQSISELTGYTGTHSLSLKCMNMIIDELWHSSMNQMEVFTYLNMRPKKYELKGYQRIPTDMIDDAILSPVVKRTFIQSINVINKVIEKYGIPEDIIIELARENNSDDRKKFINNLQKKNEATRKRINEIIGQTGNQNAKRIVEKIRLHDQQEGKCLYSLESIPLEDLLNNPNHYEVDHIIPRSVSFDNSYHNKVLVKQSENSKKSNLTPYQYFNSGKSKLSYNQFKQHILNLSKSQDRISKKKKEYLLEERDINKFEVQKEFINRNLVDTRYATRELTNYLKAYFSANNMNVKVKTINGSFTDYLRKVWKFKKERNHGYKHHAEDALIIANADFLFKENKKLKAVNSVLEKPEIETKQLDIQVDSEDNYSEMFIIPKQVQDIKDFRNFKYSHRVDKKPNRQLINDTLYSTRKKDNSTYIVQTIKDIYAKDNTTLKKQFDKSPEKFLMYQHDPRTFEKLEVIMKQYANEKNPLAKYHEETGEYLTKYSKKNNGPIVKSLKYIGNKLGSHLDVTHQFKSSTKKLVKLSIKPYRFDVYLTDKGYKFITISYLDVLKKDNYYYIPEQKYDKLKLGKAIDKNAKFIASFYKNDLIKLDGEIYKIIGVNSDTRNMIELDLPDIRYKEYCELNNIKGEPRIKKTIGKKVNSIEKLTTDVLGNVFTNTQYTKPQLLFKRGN
Description: as §1, §2

[5] = molecular target: T5, F8 sRGN (synthetic (Staphylococcus Cas9 chimera)); experiment: FP; cleavage; 5 mM MgCl2, 37 C
T5 chain: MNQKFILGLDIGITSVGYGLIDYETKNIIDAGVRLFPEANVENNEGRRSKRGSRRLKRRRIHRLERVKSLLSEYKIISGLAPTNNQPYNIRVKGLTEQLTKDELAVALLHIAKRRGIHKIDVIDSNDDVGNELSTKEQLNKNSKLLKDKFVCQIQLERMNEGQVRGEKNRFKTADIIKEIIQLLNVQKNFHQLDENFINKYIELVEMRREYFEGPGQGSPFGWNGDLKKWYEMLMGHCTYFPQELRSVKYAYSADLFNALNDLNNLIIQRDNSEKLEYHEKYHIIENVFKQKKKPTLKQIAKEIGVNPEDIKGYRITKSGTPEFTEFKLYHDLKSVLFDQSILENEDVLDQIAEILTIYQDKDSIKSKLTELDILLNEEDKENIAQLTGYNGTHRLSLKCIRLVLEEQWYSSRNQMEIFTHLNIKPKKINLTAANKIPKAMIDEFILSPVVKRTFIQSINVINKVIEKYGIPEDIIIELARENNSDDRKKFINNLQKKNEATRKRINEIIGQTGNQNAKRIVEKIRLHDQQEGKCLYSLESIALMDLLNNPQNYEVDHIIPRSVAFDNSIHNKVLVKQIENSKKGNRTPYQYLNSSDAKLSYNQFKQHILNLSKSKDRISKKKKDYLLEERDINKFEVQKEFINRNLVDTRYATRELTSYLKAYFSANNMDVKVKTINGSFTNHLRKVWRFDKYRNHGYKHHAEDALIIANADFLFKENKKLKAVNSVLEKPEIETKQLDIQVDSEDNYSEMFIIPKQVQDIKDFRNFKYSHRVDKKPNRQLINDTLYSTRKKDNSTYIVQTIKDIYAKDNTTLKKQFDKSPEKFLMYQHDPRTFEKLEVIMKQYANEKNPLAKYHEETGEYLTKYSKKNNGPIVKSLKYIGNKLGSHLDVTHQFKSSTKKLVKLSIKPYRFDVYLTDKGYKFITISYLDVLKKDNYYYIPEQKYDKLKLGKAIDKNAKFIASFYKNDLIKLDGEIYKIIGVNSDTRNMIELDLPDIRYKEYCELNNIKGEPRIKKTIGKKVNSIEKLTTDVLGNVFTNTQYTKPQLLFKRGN
Description: as §1, §2

Measured: binding result

B1: sgRNA_Ex6 ; R01-1 on-target duplex (ssRNA ; dsDNA)
RNA: GGUGAACGUGGAUGAAGUUGGUUUUAGUACUCUGGAAACAGAAUCUACUGAAACAAGACAAUAUGUCGUGUUUAUCCCAUCAAUUUAUUGGUGGGAUUUUUUUCUAGCAUAACCCCUUGGGGCCUCUAAACGGGUCUUGAGGGGUUUUUU
DNA 1: GGTGAACGTGGATGAAGTTGTGGGGTAC
DNA 2: GCGGTACCCCACAACTTCATCCACGTTCACCGG
binds: all assays above
